The nature of the data set: soluble on expression in E. coli; label from the status in PepcDB or PDB records.
For the sequence “MKFTIMSKGDQSSDTLASTMKEYLLDFGFIMDEKEPDIVISVGGDGTLLYAFHRYYNRLDETAFVGVHTGHLGFYADWLPTEVEKLVIAIAKTPFQVVEYPLLEVIIRYVNGSKESQYLAMNEATVKSAEGTLVTEVEIRGEYFETFRGDGLCISTPSGSTAYNKALGGAIIHPSIEAIQIAEMASINNRVFRTVGSPLVLPKHHTCVLKPAAGMNLQITVDHLTMVHQDVKSIQYRVANEKVRFVRFRPFPFWKRVRDSFVADKLEHHHHHH”, the “soluble on expression in E. coli” value was “not soluble”.
Next, “MGSDKIHHHHHHMSIAAEKISSEALFDLLEIFDNQPWMRDLHAELAELWNACETREEQHLLKFLLKKFFLLDAQKEKLALYGISKKIQEWGLNPASTWIVAAANKDEIDGSSAGLQKLKNKINPIEEWHSRFISNIPSASNKVKSGDTIILFDDFIGTGGKMIKKTAWLKRLVTKFDPRNLKFYYVSFSGMQFGLTSLAAETACTTYAHFIFTKAISEALPEQEALTLISAMKSIEERLAVRHKNKQLNDYSLGYEKSEALYCGQNDNCPNNVFPVFWWPSMKNGNNRKTLLKRAG”: “not soluble”; “MSICLIAEEGADSGALSSLAERWGLVSDPNAVMALVLTTERLELRKQDEPKLGAIFVDFVAGPMAHRRRFGGGRGEAVAKAVGIKKDYLPDVVDATAGLGRDAFVLAALGCHVRMVERNPVVAALLDDGLKRGYQDAEIGPWLRERLTLLHASSMTALRDITPPPDVVYLDPMFPHKQKSALVKKEMRVFQSLVGADDDADALLEPARALAKKRVVVKRPDYAPPLAGVPAQSMLETKSHRFDFYLPVLEHHHHHH”: “soluble”; “MSDPKQKSDDLPEQVEQPEQGGGNDGQEEDVQMAEVSEQELERVRTLLHRDWMYSFTPERVRRYHLNRSDYLNEEIRHSQRAIRNALLGYKHASNSRKTCRTDLLDTTWILENLELVGRQLPRESSSQGNPNQESVQELHRQICQLFEDDALAVCERGHNQEVALDLASQVIATHMRTIREFQEEYFKVTGKKHELKKLEDNAYGVLLTPSPKRMPKNFQRRRSDGDDDDDGPGNWGNLNPVAPV”: “soluble”.
Turning to “MASTIKEALSVVSEDQSLFECAYGTPHLAKTEMTASSSSDYGQTSKMSPRVPQQDWLSQPPARVTIKMECNPSQVNGSRNSPDECSVAKGGKMVGSPDTVGMNYGSYMEEKHMPPPNMTTNERRVIVPADPTLWSTDHVRQWLEWAVKEYGLPDVNILLFQNIDGKELCKMTKDDFQRLTPSYNADILLSHLHYLRETPLPHLTSDDVDKALQNSPRLMHARNTGGAAFIFPNTSVYPEATQRITTRPDLPYEPPRRSAWTGHGHPTPQSKAAQPSPSTVPKTEDQRPQLDPYQILGPTSSRLANPGSGQIQLWQFLLELLSDSSNSSCITWEGTNGEFKMTDPDEVARRWGERKSKPNMNYDKLSRALRYYYDKNIMTKVHGKRYAYKFDFHGIAQALQPHPPESSLYKYPSDLPYMGSYHAHPQKMNFVAPHPPALPVTSSSFFAAPNPYWNSPTGGIYPNTRLPTSHMPSHLGTYY”, the “soluble on expression in E. coli” value was “soluble”.
Next, “GPGSMHGIRRWRVRLVNRACQSLSGSLVFSACRHCATVPTEDDVRKAYKILGVHTSATLTDVKKRYGDLAKEHHPDVSNSSAVSSTNRMTDINNAYNTVKQFHQAGRRLFEATRAPNASGASDSSSSSYYSKQDSAYQPWYEDMDPLMYELMWEEMRRQNEEDSFARNMHAEAFYRPNDRWRPPRGNASARPRQSSGSSDGRQSHAGKKSPSSTTWPEEQVKAMVNMYQDGKSFEFIANALGKESAAAVLEEFNRWSSDNQPQRRKGAKPHHARRHRYHGGHGPFYHTESPDEVPFELYEMMEEEPYYDGSSEESGDPFGYYSGDGEAYDVPYTHATPFYGVHQMNGGPAPYGHFEGGVGREYNSSRKMSHRPMRNHRGGPPNKNRRYGGTSSNHKGSGGGFQSGNGKSHGSGGGKT”: “not soluble”.
For the sequence “MGSDKIHHHHHHMKESGNFEFDDVQGLLRFGYGKLADTCFMLLKIADASAARQWLSTAPVSSAIAIHPPPDTALQIAFSVQGLRALGIDESIIDGFSDEFVHGMTRNENCSRRLGDIGHNAPKYWKWGEGADVPHILLLLYARKGGLDAWKATVEGEYFSQAFQLLQYLPTSDMGRTDPFGFEDGISQPAIDWADRHDTDSHANDRYTNLLAAGEMVLGYPNEYGQYTARPLIDLQKDRFAVNLPDAKDDPARKDFGRNGTYLVLRQLEQNVPGFWQFLDKVSDSIPEKRERLAASMVGRERNGTPLIAEHIPGILPKDHGNHFTYDLDPKGNHCPVSAHVRRANPRTGDLPTAVTGTGAIALINRLVKILGFGQKPEEDLIASSRFHRLLRRGRSYGPVLAPGDAVKPDAPAAERGLQFICLVANIGRQFEFVQNAWIVNGKFGGLQEEPDPLLGNREPMINGNSTDHFNRPTSSGSMQKTCHLPQFTTVLGGGYFFMPGLRALKYISALPANGNGGSS”, the “soluble on expression in E. coli” value was “not soluble”.
Next, “GMSVNGIEVAKPFIAATVNVLSTMAGIQPQPGKPYVKKNNVAKGDVSAVIGITGHKNGSISVTFTKSCAIALVKGMLGDDIQDILQDTKDAVGEVTNMISGQARAGLAEMGMVFQGSTPSVIMGDGHTISHVTKSPIMAIPFLTNHGEFTVEFCFE”: “soluble”.
Regarding “MFFIGIFGIENKQKEVKQLENIYCKTCSTRTMGTLIKSYEYFHIFFIPIFRWNEKYYVMCKRCNSIYEISKEKGKAIENGEINEVNLEDMTLIQEGQVYGKRAVKKVCPNCGKTVDGDYNYCPYCGSEILEHHHHHH”, the “soluble on expression in E. coli” value is “not soluble”.
Next, “QHPAFMTEMPTDGKYQDTIEALQSMKYDKEDDEDKQMNAEHHKEEGNKHFKFKKYRWATDCYSNGIKENSPDRKLNAVLYFNRAAAQKHLGNLRSAIKDCSMGRKFDPTHLKGVIRGAECLLELEYAKDALNWIESSKKIFAFTKETSDTPDLTDDEKKFIDQLETLRVKSVELSLKEERDKRKSRAEERKETESKKQLLDALKERNLNLCPRVPFDRPELMDMARLTVSLPLMHSHECVKFDDDLNLVWPILLQYPEAGQTDVLTETNELTTVGELLKEVLNSPAQWDPEHKFNFENVRFFVSDEYDEYLMEVYEWNDFKSVLSMPGYQIKQGLPVIMIMTKEKAASSLEALAEDENRYVAK”: “not soluble”.
Next, “MIRELFEKEGFTLDEEQERKFSIYLQELLRWNKVHNLTSIKKPEEIVRRHFIDSVSVVRCFERIGLDLRGKHFADVGSGAGFPGVPLKIYLKDIKLTLIESVSKKCSFLEYLKIKLNEDYRVLCTRAEKVEEKFDVVLARALGEFEEVKEILEKLSIGYVFVYKGSKLKEEWLKDYKLCELSLSFMPKSYILWKKV”: “soluble”.
Next, “MKKARRRIDVDELFEGVRRGDRTLISRAITLLESTAPAHRVLAQELLVKLLPFSGKALRVGITGVPGVGKSTFIEALGMKLIGDGHKLAVLAIDPSSTKTRGSILGDKTRMAKLAREDNAFIRPSPSAGTLGGVAKATRESMVVFEAAGYDVILVETVGVGQSEVAVSQMVDCFTFLALAGAGDQLQGIKKGILEMADLVAINKADGPNLKNAKRAARELAAAMRMVRQENDLWHPPTITMSAVEHEGVDEFWEHVQNHNKAMLESGVFEHNRREQQVQWMWSMVHETLLQRLNTDPNVVEVKKLVEDQLRHAHITPTLAAERILKAFDHVTAD”: “not soluble”.
Consider “QAILYVGHGSRVKKAQQEAAAFLEGCKAHISVPVQEISFLELQEPTIETGFEACVKQGATHIAVVPLLLLTAAHAKHDIPEEIVRVASRYPSVRISYGKPIGIDEEVVKAVYHRMKDIGVPYENARVVLIGRGSSDPDVKRDVTGIANLLQEMVPVKEVIPCFLTACGPNYKEVFSELEKDDGITTFIVPYLLFTGMLMNEIEREVQKLKAHNPNVYLSSYIGFHPHVKNAFLNRVRETAANSEGQFDFDGGSYASAAH”, for which the “soluble on expression in E. coli” value was “not soluble”.
As for “SLGAGQPLGGYAEDLEGRQADLPKYSRANVRIVFAAVFPESNVYQGGEGYPTPSSSRLLLLDQVKTYYALSSIHGVEIIESWRSAQEVLEAPRWRLGLLLHLEGADALADILDLELLHRLGFRSLGLTWNHDNRWAASCKTRRDYGLTQSGEDLVKKAAELGVIIDLAHASDKTVADAASASPKPVIVSHANFRWKVDSPRNVGEEAVEAVVSKGGVIGYSLISTLITRGRHPTLHDVASQMAEFVEVYGHRHLAIGTDYHGLLDIRPPTGLESIDRLPRLLEALADAGLSDRQIEAIAYGNIARVIREVLPES”, the “soluble on expression in E. coli” value is “not soluble”.
Consider “MKSVQDALYNWLTIHIVAKARPHDAAARDTASFFRAILENDFGVTAVDAVKDETNGQYIVEYVRGGETRAACFPLELAEAMWRQIEAEPEKYG”, for which the “soluble on expression in E. coli” value is “not soluble”.
Regarding “MIHEITLDGKIVRYKVVEKPVKYVTLRFLEDGTLLVVTPSKEIVREVLIKKRNWILSKLSIIEEAKELAGEGFPLFGRFYSLEIGEKFEIDDKNRIIIYPGIDVLRDWIKKEVKRRAQEISKEFGVAPKRIYVRVMKTKWGSTTWRKSVTLNLSSVALPEELFHYLVIHELAHLIELNHSKRFWSIVARYHPDYKEKRRELKKWWFIVHLNETWRAILQWPGGGSSSSWALEHHHHHH”, the “soluble on expression in E. coli” value is reported as “soluble”.
Regarding “MGSDKIHHHHHHMPSGGVLPVGVHATPMSVREEFDEWAASGRDKGMEDRHWHTAKDVLARMPVEDDDTVLDLGTGSGYAVRALRERGVARGYGLDGAPEMAANARTYTDDDDLAYVVGDFGSLPFADDAIDHVFSFEAFYYASDPRETLAEIRRVLKSGGTFYCGVNYYEENVHSHDWQDSISVEMTRWDRATYREAFRGAGLHVAAQDLIADTEIDIPAASEFPHEGFDSRADMVERYRTFGTLLTVGVAP”, the “soluble on expression in E. coli” value is recorded as “not soluble”.
On to “MGSDKIHHHHHHMGASAISQQISKLEQELSIRLLQRNAFGVTPTPAGLAFLKHSQLILRQVNFAIDAAHSARLSGHVSLGFPPTITALIGIPLMKLMSERYPDIRLEIVETLSGNLIQSINSRQLDIAIIFTNEIDKQWSIQPLVREQMYLMARKEVLEKYGLSECIKSGIIQSQQIGDIPLVLPRQRHSLRKLLEHKIGQLNVVYEIDGLHLLMDSLIHLDLASVRPGSACLQEYKHKLQLLKVVDPEVERINYLVSLAEEELSPAALAAKSAIKACVKELIQNQIWPCSEIIL”, for which the “soluble on expression in E. coli” value is given as “not soluble”.
As for “WVFFVEDGETIRVRLRSKGPVINTVAMEHNGGGHPMAAGAKAKSWEETDKIV”, the “soluble on expression in E. coli” value is recorded as “soluble”.
Next, “MSLDINQIALHQLIKRDEQNLELVLRDSLLEPTETVVEMVAELHRVYSAKNKAYGLFSEESELAQTLRLQRQGEEDFLAFSRAATGRLRDELAKYPFADGGFVLFCHYRYLAVEYLLVAVLSNLSSMRVNENLDINPTHYLDINHADIVARIDLTEWETNPESTRYLTFLKGRVGRKVADFFMDFLGASEGLNAKAQNRGLLQAVDDFTAEAQLDKAERQNVRQQVYSYCNEQLQAGEEIELKSLSKELAGVSEVSFTEFAAEKGYELEESFPADRSTLRQLTKFAGSGGGLTINFDAMLLGERIFWDPATDTLTIKGTPPNLRDQLQRRTSGGNLEHHHHHH”: “not soluble”; “MATATMLKPLGDRVVVKRIEEEAKTKGGIVLPDTAKEKPQKGKVVAVGSGRTLDNGTKVPLEVKEGDTVVFAKYGGTEIEIDGEEYIILSERDLLAVI”: “soluble”.

These data come from the DeepSol protein solubility set.
